# According to patent US20110311550A1 (Scripps Research, published 2011):
# Columns and labels:
# [1] = biological target: T1, vaccinia-expressed E1E2 complex, isolate HCV-1 (genotype 1a) (hepatitis C virus, isolate HCV-1, UniProt P26664 192-383; P26664 384-746); assay: competition ELISA on HCV-1 E1E2; competitor m31 (11/20)
# [2] = biological target: T1, vaccinia-expressed E1E2 complex, …; assay: competition ELISA on HCV-1 E1E2; competitor m34 (6/53)
# [3] = biological target: T1, vaccinia-expressed E1E2 complex, …; assay: competition ELISA on HCV-1 E1E2; competitor m6 (AR3C)
# [4] = biological target: T1, vaccinia-expressed E1E2 complex, …; assay: competition ELISA on HCV-1 E1E2; competitor m30 (7/16B)
# [5] = biological target: T2, E1E2 complex of HCV isolate H77 (genotype 1a), wild type (HCV isolate H77, UniProt P27958 192-383; P27958 384-746); assay: competition ELISA on H77 E1E2; competitor m40 (Fab N4)
# [6] = biological target: T1, vaccinia-expressed E1E2 complex, …; assay: competition ELISA on HCV-1 E1E2; competitor m28 (1/39)
# [7] = biological target: E1E2 (Env) of HCV isolate UKN2B1.1 (genotype 2b) on HCVpp (hepatitis C virus, isolate UKN2B1.1); assay: cell-based or functional assay
# [8] = biological target: VSV (control pseudotype virus envelope); assay: cell-based or functional assay
# [9] = biological target: E1E2 (Env) of HCV isolate J6 (genotype 2a) on HCVpp (hepatitis C virus, isolate J6, UniProt P26660 192-383; P26660 384-750); assay: cell-based or functional assay
# [10] = biological target: E1E2 (Env) of HCV isolate UKN1B12.16 (genotype 1b) on HCVpp (hepatitis C virus, isolate UKN1B12.16); assay: cell-based or functional assay
# [11] = biological target: E1E2 (Env) of HCV isolate H (genotype 1a) on HCVpp (hepatitis C virus, isolate H); assay: cell-based or functional assay
# [12] = biological target: E1E2 (Env) of HCV isolate UKN5.15.7 (genotype 5) on HCVpp (hepatitis C virus, isolate UKN5.15.7); assay: cell-based or functional assay
# [13] = biological target: E1E2 (Env) of HCV isolate UKN4.21.16 (genotype 4) on HCVpp (hepatitis C virus, isolate UKN4.21.16); assay: cell-based or functional assay
# [14] = biological target: T2, E1E2 complex of HCV isolate H77 …; assay: cell-based or functional assay
# [15] = biological target: E1E2 (Env) of HCV isolate OH8 (genotype 1b) on HCVpp (hepatitis C virus, isolate OH8); assay: cell-based or functional assay
# [16] = biological target: E1E2 (Env) of HCV isolate UKN2A1.2 (genotype 2a) on HCVpp (hepatitis C virus, isolate UKN2A1.2); assay: cell-based or functional assay
# [17] = biological target: T2, E1E2 complex of HCV isolate H77 …; assay: competition ELISA on H77 E1E2; competitor m44 (Fab P2)
# [18] = biological target: T1, vaccinia-expressed E1E2 complex, …; assay: competition ELISA on HCV-1 E1E2; competitor m33 (9/75)
# [19] = biological target: T1, vaccinia-expressed E1E2 complex, …; assay: competition ELISA on HCV-1 E1E2; competitor m21 (CBH-5)
# [20] = biological target: T1, vaccinia-expressed E1E2 complex, …; assay: competition ELISA on HCV-1 E1E2; competitor m35 (ALP98)
# H77 E1E2 mutant N540A = H77 E1E2 mutant N540A (HCV isolate H77, UniProt P27958 192-383; P27958 384-746); assay: ELISA, alanine mutant E1E2
# H77 E1E2 mutant T534A = H77 E1E2 mutant T534A (HCV isolate H77, UniProt P27958 192-383; P27958 384-746); assay: ELISA, alanine mutant E1E2
# H77 E1E2 mutant H421A = H77 E1E2 mutant H421A (HCV isolate H77, UniProt P27958 192-383; P27958 384-746); assay: ELISA, alanine mutant E1E2
# H77 E1E2 mutant D533A = H77 E1E2 mutant D533A (HCV isolate H77, UniProt P27958 192-383; P27958 384-746); assay: ELISA, alanine mutant E1E2
# H77 E1E2 mutant R483A = H77 E1E2 mutant R483A (HCV isolate H77, UniProt P27958 192-383; P27958 384-746); assay: ELISA, alanine mutant E1E2
# H77 E1E2 mutant N532A = H77 E1E2 mutant N532A (HCV isolate H77, UniProt P27958 192-383; P27958 384-746); assay: ELISA, alanine mutant E1E2
binder,measurement,setting,value
"MAb AR3D (antibody, V domains shown, also called IgG1 of Fab L4) VH: LEQSGAEVKKPGSSVKVSCKASGDTFRSYVITWARQAPGQGLEWMGAIIPFFGTTNLAQKFQGRVTITADESTKTVYMDLSSLRSDDTAVYYCAKAGDLSVGGVLAGGVPHLRHFDPWGQGTLVTVSS VL: ELTQSPGTLSLSPGERATLSCRAGQTVASNSLAWYQHKPGQAPRLLIYGASIRASGIPDRFSGSGSGTDFTLTISRLEPEDFAVYYCQQYGLSSTFGQGTRLEIKR",% residual binding,[1],47%
same,% residual binding,[2],103%
same,% residual binding,[3],13%
same,% residual binding,[4],94%
same,% residual binding,[5],92%
same,% residual binding,[6],80%
same,Neutralizing activity (IC50) on HCVpp,[7],25 µg/mL
same,Neutralizing activity (IC50) on control pseudotype virus,[8],> 50 µg/mL
same,Neutralizing activity (IC50) on HCVpp,[9],50 µg/mL
same,Neutralizing activity (IC50) on HCVpp,[10],1 µg/mL
same,Neutralizing activity (IC50) on HCVpp,[11],1 µg/mL
same,Neutralizing activity (IC50) on HCVpp,[12],10 µg/mL
same,Neutralizing activity (IC50) on HCVpp,[13],1 µg/mL
same,Neutralizing activity (IC50) on HCVpp,[14],1 µg/mL
same,Neutralizing activity (IC50) on HCVpp,[15],5 µg/mL
same,Neutralizing activity (IC50) on HCVpp,[16],25 µg/mL
same,% residual binding,[17],138%
same,% residual binding,[18],53%
same,% residual binding,[19],18%
same,% residual binding,[20],97%
same,binding vs wild-type E1E2,H77 E1E2 mutant N540A,56%
same,binding vs wild-type E1E2,H77 E1E2 mutant T534A,181%
same,binding vs wild-type E1E2,H77 E1E2 mutant H421A,87%
same,binding vs wild-type E1E2,H77 E1E2 mutant D533A,146%
same,binding vs wild-type E1E2,H77 E1E2 mutant R483A,151%
same,binding vs wild-type E1E2,H77 E1E2 mutant N532A,159%
